Assay results reported in publication PMC12489471, “A multi-dentate, cooperative interaction between endo- and exo-ribonucleases within the bacterial RNA degradosome” (Nucleic Acids Research, 2025).

System: PNPase core
Experiment: Cryo-EM of E. coli PNPase core:RNase E complex
Format: binding
Conditions: 20 mM Tris–HCl pH 8.0, 25 mM MgCl2, 150 mM KCl, 1 mM TCEP
Protocol: The PNPase core encoding sequence from E. coli (aa 1–552), Salmonella enterica serovar Typhimurium (UniProt: Q8ZLT3) (aa 1–552), or Pseudomonas aeruginosa (strain PAO1, UniProt: Q9HV59) (aa 1–553) was amplified using corresponding genomic DNA as a template and cloned into pExp-Mxe-CHis expression vector. The protein of interest, produced as a fusion with C-terminal 8×His-tagged Mycobacterium xenopi GyrA intein, was expressed in Evo21(DE3) cells at 18°C overnight following induction with 0.4 mM IPTG. […] After cleavage, the protein buffer was exchanged using HiPrep 26/10 desalting column (Cytiva), and the protein solution was reapplied to Ni-NTA resin to remove His-tagged intein and uncleaved material. […]
Purified PNPase core and RNE-muGFP-CHis proteins were mixed in 1:2 ratio and their complex were separated on the Superdex 200 Increase 10/300 GL column (Cytiva) equilibrated with cryo-EM Buffer (20 mM Tris–HCl, pH 8.0, 25 mM MgCl2, 150 mM KCl, 1 mM TCEP). […] The samples were mixed with CHAPSO (3-([3-cholamidopropyl]dimethylammonio)-2-hydroxy-1-propanesulfonate) at a final concentration of 8 mM before being applied onto R2/2 Au Ultrafoil grids (Quantifoil) that had been pre-treated by glow-discharge (PELCO easiGLOW: 60 s, 25 mA, 0.39 mBar). […]

B1: RNase E 960 – 1061 wildtype: wildtype RNase E peptide 960–1061 (peptide)
chain: VVETAEVVVAEPEVVAQPAAPVVAEVAAEVETVAAVEPEVTVEHNHATAPMTRAPAPEYVPEAPRHSDWQRPTFAFEGKGAAGGHTATHHASAAPARPQPVE
modifications: left off: His6, N-terminal, cleaved | MBP, N-terminal, cleaved | intein, C-terminal, cleaved | choline-binding domain, C-terminal, cleaved
binding mode / stoichiometry with E. coli PNPase core: interacting with two protomers of the trimeric PNPase core
